Target: T1, 血清标本中的AFP抗原 (UniProt P02771 19-609)
T1 construct: also called 质控血清AFP; 标准血清中的AFP
T1 sequence (looked up): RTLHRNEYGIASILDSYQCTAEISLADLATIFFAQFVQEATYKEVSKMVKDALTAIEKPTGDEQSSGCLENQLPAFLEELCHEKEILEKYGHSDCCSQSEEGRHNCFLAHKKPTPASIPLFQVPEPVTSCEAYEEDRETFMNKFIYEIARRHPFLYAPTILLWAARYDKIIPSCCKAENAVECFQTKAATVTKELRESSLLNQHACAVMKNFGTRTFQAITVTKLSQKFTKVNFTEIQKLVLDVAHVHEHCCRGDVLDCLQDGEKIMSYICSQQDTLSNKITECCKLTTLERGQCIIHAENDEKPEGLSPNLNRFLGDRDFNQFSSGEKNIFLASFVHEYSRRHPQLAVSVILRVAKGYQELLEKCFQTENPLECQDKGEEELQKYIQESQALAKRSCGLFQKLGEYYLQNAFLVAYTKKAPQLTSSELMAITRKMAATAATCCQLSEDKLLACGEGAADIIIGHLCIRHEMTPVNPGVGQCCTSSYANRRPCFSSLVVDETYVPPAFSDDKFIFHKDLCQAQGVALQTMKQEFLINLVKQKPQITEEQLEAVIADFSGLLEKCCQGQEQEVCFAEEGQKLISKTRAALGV
Test: double-antibody sandwich chemiluminescent immunoassay, detection antibody

binding result: binds
B1: 带有化学发光区序列的纳米抗体1C5-HAP (other)
chain: QVQLQESGGGLVQAGGSLRLSCKASERTFSSYSMAWYRQAPGKKREFVASISWDDERTYYTDSVKGRFTISRPNAKNTVYLQMNSLKPEDTAVYYCAVGGLSDGLGPSYDYWGQGTQVTVSSGGGGSGGGGSGGGGSIIPVEEENPDFWNREAAEALGAAKKLQPAQTAAKNLIIFLGDGMGVSTVTAARILKGQKKDKLGPEIPLAMDRFPYVALSKTYNVDKHVPDSGATATAYLCGVKGNFQTIGLSAAARFNQCNTTRGNEVISVMNRAKKAGKSVGVVTTTRVQHASPAGTYAHTVNRNWYSDADVPASARQEGCQDIATQLISNMDIDVILGGGRKYMFRMGTPDPEYPDDYSQGGTRLDGKNLVQEWLAKRQGARYVWNRTELMQASLDPSVTHLMGLFEPGDMKYEIHRDSTLDPSLMEMTEAALRLLSRNPRGFFLFVEGGRIDHGHHESRAYRALTETIMFDDAIERAGQLTSEEDTLSLVTADHSHVFSFGGYPLRGSSIFGLAPGKARDRKAYTVLLYGNGPGYVLKDGARPDVTESESGSPEYRQQSAVPLDEETHAGEDVAVFARGPQAHLVHGVQEQTFIAHVMAFAACLEPYTACDLAPPAGTTD
notes: Expressed in 293 cells

— patent publication CN113234166A (SHENZHEN INNOVA NANOBODI CO LTD, dated 2021)
